Experimental data from patent US20110263454A1, “Methods of Identifying Functional Characteristics of Promoters, Transcription Modifying Proteins and Transcription Modulating Agents” (Salk Institute for Biological Studies, priority 2008, published 2011).

Assays:
[1] = tested on: mPer1 promoter; test: NHR-promoter luciferase screen, mPer1 promoter; format: cell-based, mouse; conditions: for Luc. act., normalized to lacZ / Normalized Luc. act., normalized to control: Per1 promoter reporter, co-transfected HR, with or without its ligand; for Normalized Luc. act., normalized to control: relative to control; for luciferase activity normalized to lacZ activity and to a control, mPer1: mPer1 promoter-luciferase, CV-1 cells, NHR +/- ligand, control = 1.00
Outline: (§1)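 CV-1 cells were co-transfected with 50 ng NHR (homodimer or NHR/RXR heterodimer), 100 ng promoter-luciferase construct and 50 ng LacZ. Luciferase was normalized to LacZ and to a no-NHR/no-ligand control.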

[2] = tested on: mUCP1 promoter; test: NHR-promoter luciferase screen, mUCP1 promoter; format: cell-based, mouse; conditions: for Luc. act., normalized to lacZ / Normalized Luc. act., normalized to control: mUCP1 promoter reporter, co-transfected HR, with or without its ligand; for Normalized Luc. act., normalized to control: relative to control; for luciferase activity normalized to lacZ activity and to a control, mUCP!: mUCP! promoter-luciferase, CV-1 cells, NHR +/- ligand, control = 1.00
Outline: as §1

[3] = tested on: mLeptin promoter; test: NHR-promoter luciferase screen, mLeptin promoter; format: cell-based, mouse; conditions: for Luc. act., normalized to lacZ / Normalized Luc. act., normalized to control: Table 7, mLeptin; for Results of assays of transcription factor (+/- ligand) with mLeptin: Table 6d, luciferase activity relative to control (control = 1.00)
Outline: as §1

[4] = tested on: mUCP3 promoter; test: NHR-promoter luciferase screen, mUCP3 promoter; format: cell-based, mouse; conditions: for Normalized Luc. act., normalized to control / Luc. act., normalized to lacZ: mUCP3 promoter reporter; for Normalized Luc. act., normalized to control: HR without or with its ligand, relative to control; for Luc. act., normalized to lacZ: hormone receptor (HR) without or with its ligand; for mUCP3 promoter reporter activity: transcription factor +/- ligand, control = 1.00
Outline: as §1

[5] = tested on: hMDR1 promoter; test: NHR-promoter luciferase screen, hMDR1 promoter; format: cell-based, human; conditions: for Luc. act., normalized to lacZ / Normalized Luc. act., normalized to control: MDR1 promoter, HR/ligand component; for hMDR1 promoter reporter activity: transcription factor +/- ligand, control = 1.00
Outline: as §1

[6] = tested on: hTNFa promoter; test: NHR-promoter luciferase screen, hTNFa promoter; format: cell-based, human; conditions: for Luc. act., normalized to lacZ / Normalized Luc. act., normalized to control: TNFa promoter, HR component without or with ligand; for hTNFa promoter reporter activity: transcription factor +/- ligand, control = 1.00
Outline: as §1

Molecule	Luc. act., normalized to lacZ [1]	Normalized Luc. act., normalized to control [1]	luciferase activity normalized to lacZ activity and to a control, mPer1 [1]	Luc. act., normalized to lacZ [2]	Normalized Luc. act., normalized to control [2]	luciferase activity normalized to lacZ activity and to a control, mUCP! [2]	Luc. act., normalized to lacZ [3]	Normalized Luc. act., normalized to control [3]	Results of assays of transcription factor (+/- ligand) with mLeptin [3]	Normalized Luc. act., normalized to control [4]	Luc. act., normalized to lacZ [4]	mUCP3 promoter reporter activity [4]	Luc. act., normalized to lacZ [5]	Normalized Luc. act., normalized to control [5]	hMDR1 promoter reporter activity [5]	Luc. act., normalized to lacZ [6]	Normalized Luc. act., normalized to control [6]	hTNFa promoter reporter activity [6]
PXR: Pregnane X Receptor (NR1I2), cDNA driver (protein, UniProt O75469 1-434, looked up) Nuclear receptor subfamily 1 …: MEVRPKESWNHADFVHCEDTESVPGKPSVNADEEVGGPQICRVCGDKATGYHFNVMTCEGCKGFFRRAMKRNARLRCPFRKGACEITRKTRRQCQACRLRKCLESGMKKEMIMSDEAVEERRALIKRKKSERTGTQPLGVQGLTEEQRMMIRELMDAQMKTFDTTFSHFKNFRLPGVLSSGCELPESLQAPSREEAAKWSQVRKDLCSLKVSLQLRGEDGSVWNYKPPADSGGKEIFSLLPHMADMSTYMFKGIISFAKVISYFRDLPIEDQISLLKGAAFELCQLRFNTVFNAETGTWECGRLSYCLEDTAGGFQQLLLEPMLKFHYMLKKLQLHEEEYVLMQAISLFSPDRPGVLQHRVVDQLQEQFAITLKSYIECNRPQPAHRFLFLKIMAMLTELRSINAQHTQRLLRIQDIHPFATPLMQELFGITGS	186.7	1.3	1.30	2.1	0.5	0.47	4.1	1.4	1.40	1.3	0.9	1.34	0.3	1.1	1.10	1152.4	1.2	1.17
CAR: Constitutive Androstane Receptor (NR1I3), cDNA driver (protein, UniProt Q14994 1-352, looked up) Nuclear receptor subfamily 1 …: MASREDELRNCVVCGDQATGYHFNALTCEGCKGFFRRTVSKSIGPTCPFAGSCEVSKTQRRHCPACRLQKCLDAGMRKDMILSAEALALRRAKQAQRRAQQTPVQLSKEQEELIRTLLGAHTRHMGTMFEQFVQFRPPAHLFIHHQPLPTLAPVLPLVTHFADINTFMVLQVIKFTKDLPVFRSLPIEDQISLLKGAAVEICHIVLNTTFCLQTQNFLCGPLRYTIEDGARVSPTVGFQVEFLELLFHFHGTLRKLQLQEPEYVLLAAMALFSPDRPGVTQRDEIDQLQEEMALTLQSYIKGQQRRPRDRFLYAKLLGLLAELRSINEAYGYQIQHIQGLSAMMPLLQEICS	86.6	0.6	0.60	3.3	0.7	0.74	2.7	0.9	0.93	0.9	0.6	0.90	0.2	0.7	0.68	908.2	0.9	0.92
RXRg: Retinoic X Receptor γ (NR2B3), cDNA driver (protein, UniProt P48443 1-463, looked up) Retinoic acid receptor …: MYGNYSHFMKFPAGYGGSPGHTGSTSMSPSAALSTGKPMDSHPSYTDTPVSAPRTLSAVGTPLNALGSPYRVITSAMGPPSGALAAPPGINLVAPPSSQLNVVNSVSSSEDIKPLPGLPGIGNMNYPSTSPGSLVKHICAICGDRSSGKHYGVYSCEGCKGFFKRTIRKDLIYTCRDNKDCLIDKRQRNRCQYCRYQKCLVMGMKREAVQEERQRSRERAESEAECATSGHEDMPVERILEAELAVEPKTESYGDMNMENSTNDPVTNICHAADKQLFTLVEWAKRIPHFSDLTLEDQVILLRAGWNELLIASFSHRSVSVQDGILLATGLHVHRSSAHSAGVGSIFDRVLTELVSKMKDMQMDKSELGCLRAIVLFNPDAKGLSNPSEVETLREKVYATLEAYTKQKYPEQPGRFAKLLLRLPALRSIGLKCLEHLFFFKLIGDTPIDTFLMEMLETPLQIT	94.5	0.7	0.66	2.5	0.6	0.55	2.1	0.7	0.70	1.4	1.0	1.41	0.2	0.7	0.65	1025.0	1.0	1.04
PPARd: Peroxisome proliferator activated receptor δ (NR1C2), cDNA driver (protein, UniProt Q03181 1-441, looked up) Peroxisome …: MEQPQEEAPEVREEEEKEEVAEAEGAPELNGGPQHALPSSSYTDLSRSSSPPSLLDQLQMGCDGASCGSLNMECRVCGDKASGFHYGVHACEGCKGFFRRTIRMKLEYEKCERSCKIQKKNRNKCQYCRFQKCLALGMSHNAIRFGRMPEAEKRKLVAGLTANEGSQYNPQVADLKAFSKHIYNAYLKNFNMTKKKARSILTGKASHTAPFVIHDIETLWQAEKGLVWKQLVNGLPPYKEISVHVFYRCQCTTVETVRELTEFAKSIPSFSSLFLNDQVTLLKYGVHEAIFAMLASIVNKDGLLVANGSGFVTREFLRSLRKPFSDIIEPKFEFAVKFNALELDDSDLALFIAAIILCGDRPGLMNVPRVEAIQDTILRALEFHLQANHPDAQYLFPKLLQKMADLRQLVTEHAQMMQRIKKTETETSLHPLLQEIYKDMY	187.6	1.3	1.30	3.5	0.8	0.79	2.6	0.9	0.89	1.7	1.1	1.69	0.3	0.9	0.90	1138.3	1.2	1.16
RXRb: Retinoic X Receptor β (NR2B2), cDNA driver (protein, UniProt P28702 1-533, looked up) Retinoic acid receptor …: MSWAARPPFLPQRHAAGQCGPVGVRKEMHCGVASRWRRRRPWLDPAAAAAAAVAGGEQQTPEPEPGEAGRDGMGDSGRDSRSPDSSSPNPLPQGVPPPSPPGPPLPPSTAPSLGGSGAPPPPPMPPPPLGSPFPVISSSMGSPGLPPPAPPGFSGPVSSPQINSTVSLPGGGSGPPEDVKPPVLGVRGLHCPPPPGGPGAGKRLCAICGDRSSGKHYGVYSCEGCKGFFKRTIRKDLTYSCRDNKDCTVDKRQRNRCQYCRYQKCLATGMKREAVQEERQRGKDKDGDGEGAGGAPEEMPVDRILEAELAVEQKSDQGVEGPGGTGGSGSSPNDPVTNICQAADKQLFTLVEWAKRIPHFSSLPLDDQVILLRAGWNELLIASFSHRSIDVRDGILLATGLHVHRNSAHSAGVGAIFDRVLTELVSKMRDMRMDKTELGCLRAIILFNPDAKGLSNPSEVEVLREKVYASLETYCKQKYPEQQGRFAKLLLRLPALRSIGLKCLEHLFFFKLIGDTPIDTFLMEMLEAPHQLA	50.5	0.4	0.35	0.9	0.2	0.21	1.5	0.5	0.50	0.8	0.6	0.83	0.1	0.3	0.28	1036.3	1.1	1.05
FXR: Farnesoid X Receptor (NR1H4), cDNA driver (protein, UniProt Q96RI1 1-486, looked up) Bile acid receptor: MVMQFQGLENPIQISPHCSCTPSGFFMEMMSMKPAKGVLTEQVAGPLGQNLEVEPYSQYSNVQFPQVQPQISSSSYYSNLGFYPQQPEEWYSPGIYELRRMPAETLYQGETEVAEMPVTKKPRMGASAGRIKGDELCVVCGDRASGYHYNALTCEGCKGFFRRSITKNAVYKCKNGGNCVMDMYMRRKCQECRLRKCKEMGMLAECMYTGLLTEIQCKSKRLRKNVKQHADQTVNEDSEGRDLRQVTSTTKSCREKTELTPDQQTLLHFIMDSYNKQRMPQEITNKILKEEFSAEENFLILTEMATNHVQVLVEFTKKLPGFQTLDHEDQIALLKGSAVEAMFLRSAEIFNKKLPSGHSDLLEERIRNSGISDEYITPMFSFYKSIGELKMTQEEYALLTAIVILSPDRQYIKDREAVEKLQEPLLDVLQKLCKIHQPENPQHFACLLGRLTELRTFNHHHAEMLMSWRVNDHKFTPLLCEIWDVQ	98.0	0.7	0.68	4.2	1.0	0.95	2.8	0.9	0.95	1.3	0.9	1.30	0.2	0.6	0.61	974.6	1.0	0.99
